# Measurements as given in IntAct's records for PubMed 23236153.
# B1: Pre-mRNA-splicing factor CWC22 homolog (Homo sapiens), Q9HCG8 (parent)
# chain: MKSSVAQIKPSSGHDRRENLNSYQRNSSPEDRYEEQERSPRDRDYFDYSRSDYEHSRRGRSYDSSMESRNRDREKRRERERDTDRKRSRKSPSPGRRNPETSVTQSSSAQDEPATKKKKDELDPLLTRTGGAYIPPAKLRMMQEQITDKNSLAYQRMSWEALKKSINGLINKVNISNISIIIQELLQENIVRGRGLLSRSVLQAQSASPIFTHVYAALVAIINSKFPQIGELILKRLILNFRKGYRRNDKQLCLTASKFVAHLINQNVAHEVLCLEMLTLLLERPTDDSVEVAIGFLKECGLKLTQVSPRGINAIFERLRNILHESEIDKRVQYMIEVMFAVRKDGFKDHPIILEGLDLVEEDDQFTHMLPLEDDYNPEDVLNVFKMDPNFMENEEKYKAIKKEILDEGDTDSNTDQDAGSSEEDEEEEEEEGEEDEEGQKVTIHDKTEINLVSFRRTIYLAIQSSLDFEECAHKLLKMEFPESQTKELCNMILDCCAQQRTYEKFFGLLAGRFCMLKKEYMESFEGIFKEQYDTIHRLETNKLRNVAKMFAHLLYTDSLPWSVLECIKLSEETTTSSSRIFVKIFFQELCEYMGLPKLNARLKDETLQPFFEGLLPRDNPRNTRFAINFFTSIGLGGLTDELREHLKNTPKVIVAQKPDVEQNKSSPSSSSSASSSSESDSSDSDSDSSDSSSESSSEESDSSSISSHSSASANDVRKKGHGKTRSKEVDKLIRNQQTNDRKQKERRQEHGHQETRTERERRSEKHRDQNSSGSNWRDPITKYTSDKDVPSERNNYSRVANDRDQEMHIDLENKHGDPKKKRGERRNSFSENEKHTHRIKDSENFRRKDRSKSKEMNRKHSGSRSDEDRYQNGAERRWEKSSRYSEQSRESKKNQDRRREKSPAKQK
# Variants of: B1
# Details: with if4a3_human EIF4A3, P38919
# if4a3_human EIF4A3, P38919, sequence (P38919 whole entry): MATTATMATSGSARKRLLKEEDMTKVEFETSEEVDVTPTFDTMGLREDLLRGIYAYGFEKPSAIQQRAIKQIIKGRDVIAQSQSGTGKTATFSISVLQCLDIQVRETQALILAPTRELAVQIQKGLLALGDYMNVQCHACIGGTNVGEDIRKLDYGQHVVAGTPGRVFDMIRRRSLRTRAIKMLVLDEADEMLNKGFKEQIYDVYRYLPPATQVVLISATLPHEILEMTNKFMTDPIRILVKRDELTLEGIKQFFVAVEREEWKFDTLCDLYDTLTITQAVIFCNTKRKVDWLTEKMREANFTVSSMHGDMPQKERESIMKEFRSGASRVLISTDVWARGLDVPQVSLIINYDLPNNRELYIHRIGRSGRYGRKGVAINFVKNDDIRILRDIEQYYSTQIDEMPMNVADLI
row,Variant,effect of a mutation on the interaction
1,R331A;Y334A,decreasing interaction strength
2,N171A;K172A;N174A,disrupting interaction strength
